According to patent publication US20210139579A1 (published 2021):

biological target: hFc-hROR1 (fusion protein of the extracellular domain of human ROR1 and the Fc domain of human IgG1) (human, UniProt P01857 99-330 = IgG part); assay: SPR
Sequence (P01857 other isoform, or with tags, fused parts or gaps): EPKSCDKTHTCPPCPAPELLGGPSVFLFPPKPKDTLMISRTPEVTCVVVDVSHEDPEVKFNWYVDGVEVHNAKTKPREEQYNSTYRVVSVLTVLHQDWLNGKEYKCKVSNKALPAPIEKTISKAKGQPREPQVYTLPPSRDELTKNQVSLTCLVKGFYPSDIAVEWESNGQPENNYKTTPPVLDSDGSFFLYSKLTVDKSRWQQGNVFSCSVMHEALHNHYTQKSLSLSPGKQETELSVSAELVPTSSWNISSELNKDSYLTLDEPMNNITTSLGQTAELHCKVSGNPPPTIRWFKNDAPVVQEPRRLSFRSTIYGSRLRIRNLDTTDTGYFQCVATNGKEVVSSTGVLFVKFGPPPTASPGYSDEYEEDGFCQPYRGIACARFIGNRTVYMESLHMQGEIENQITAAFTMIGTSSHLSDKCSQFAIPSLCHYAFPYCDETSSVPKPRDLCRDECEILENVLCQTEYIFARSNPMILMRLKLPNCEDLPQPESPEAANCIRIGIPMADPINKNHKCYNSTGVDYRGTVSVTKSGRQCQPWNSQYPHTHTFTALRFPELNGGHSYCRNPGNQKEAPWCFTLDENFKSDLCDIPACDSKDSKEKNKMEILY

Row | Binder | Kd [nM]
1 | ERR1-403 chimeric rabbit/human Fab (Fab, V domains shown) VH: QEQLKESGRGLVQPGGSLKLSCKASGFDFSGWYMTWVRQAPGKGLEWIGTIGTTKGRTYYASWVNGRFTISSDNAQNTVDLQMNSLTAADRATYFCVRGSDYFDLWGPGTLVTISS VL: SYELTQLPSVSVSLGQTARITCGGNSIGSKAVNWYQQKPGLAPGLLIYDDDERPSGVPARFSGSNSGDTATLTISGAQAGDEADYYCQLWDSSAGAYVFGGGTQLTVTG | 41.6
2 | ERR1-301 chimeric rabbit/human Fab (Fab, V domains shown) VH: QEQLEESGGGLVTPGGSLTLTCTASGFTISTYHMSWVRQAPGKGLEWIGSIYAGSGSTYYASWVNGRFTISSNTTQNTVSLQMNSLTVADTATYFCARDHPSYGMDLWGPGTLVTVSS VL: SYELTQLPSVSVSLGQTARITCGGNSIGSKAVNWYQQKPGLAPGLLIYDDDERPSGVPDRFSASNSGDTATLTISGAQAEDEADYYCQLWDSSAVAYVFGGGTQLTVTG | 118

The next binders have a lower Kd than those just listed; values first:

Row | Kd [nM] | Binder
3 | 5.81 | XBR1-402 chimeric rabbit/human Fab (Fab, V domains shown) VH: QEQQKESGGGLFKPTDTLTLTCTASGFDISSYYMSWVRQAPGNGLEWIGAIGISGNAYYASWAKSRSTITRNTNLNTVTLKMTSLTAADTATYFCARDHPTYGMDLWGPGTLVTVSS VL: SYELTQLPSVSVSLGQTARITCEGNNIGSKAVHWYQQKPGLAPGLLIYDDDERPSGVPDRFSGSNSGDTATLTISGAQAGDEADYYCQVWDSSAYVFGGGTQLTVTG
4 | 1.11 | ERR1-TOP43 chimeric rabbit/human Fab (Fab, V domains shown) VH: QSLEESGGRLVTPGTPLTLTCTVSGFSLSSYWMSWVRQAPGKGLEWIGAIYGSGNTYYASWAKGRFTISKTSTTVDLKITSPTTEDTATYFCARDVHSTATDLWGPGTLVTISS VL: SYELTQLPSVSVSLGQTARITCGGNNIGSKAVNWYQQKPGLAPGLLIYNDDERPSGVPDRFSGSNSGDTATLTISGAQAGDEADYYCQLWDSSAGAYVFGGGTQLTVTG
